Measured values: the supplement of paper PMC6757056
± gives the standard deviation of the averaged measurements.

B1: library; a variant is named by its letters at N, in order (parent)
chain: GCUGUCACCGGUGCUUGGUACGUUAUAUUCAGCCGGUCUGAUGAGUCUNNNNNNAGACGAAACAGC

What was measured:
[1] = variants of: B1; test: FACS-Seq fitted mean relative fluorescence mCherry/BFP without ligand (log10 relative fluorescence); HEK293T overexpressing SLC46A1; higher = higher reporter protein expression; conditions: without (6R,S)-folinic acid; ligand present: no
Description: (§1)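 Hammerhead (sTRSV) ribozyme switch libraries with a ligand aptamer grafted on stem I and a randomized N4-6 loop II, cloned into the 3' UTR of mCherry and transiently transfected into HEK293T cells; RNA-Seq 72 h post transfection with ligand added 1 h before transfection; RNA read count / plasmid DNA read count normalized to the non-cleaving sTRSVctl (x100), log10; sequences with >100 DNA reads. FACS-Seq: lentiviral library sorted into 6 bins after 48 h ligand, log-normal fit mean of mCherry/BFP scaled to controls. Printed sequences are partial switch sequences.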

[2] = variants of: B1; test: normalized RNA/DNA level without ligand (relative to sTRSVctl = 100) (log10 (% of sTRSVctl)); HEK293T overexpressing SLC46A1; higher = less ribozyme self-cleavage, higher mRNA level; conditions: without (6R,S)-folinic acid; ligand present: no
Description: as §1

[3] = variants of: B1; test: FACS-Seq fitted mean relative fluorescence mCherry/BFP with ligand (log10 relative fluorescence); HEK293T overexpressing SLC46A1; ligand concentration (+) FACS-Seq: 6 mM; higher = higher reporter protein expression; conditions: with (6R,S)-folinic acid; ligand present: yes
Description: as §1

[4] = variants of: B1; test: normalized RNA/DNA level with ligand (relative to sTRSVctl = 100) (log10 (% of sTRSVctl)); HEK293T overexpressing SLC46A1; ligand concentration (+) RNA-Seq: 6 mM; higher = less ribozyme self-cleavage, higher mRNA level; conditions: with (6R,S)-folinic acid; ligand present: yes
Description: as §1

## GCUGUCACCGGUGCUUGGUACGUUAUAUUCAGCCGGUCUGAUGAGUCUUAACACAGACGAAACAGC [UAACAC]
[1]
  FACS-Seq fitted mean (log10): 0.349 ± 0.11
[2]
  normalized RNA/DNA level without ligand (log10): 2.008 ± 0.0029
[3]
  FACS-Seq fitted mean (log10): 0.223 ± 0.22
[4]
  normalized RNA/DNA level with ligand (log10): 2.01 ± 0.046

## GCUGUCACCGGUGCUUGGUACGUUAUAUUCAGCCGGUCUGAUGAGUCUUAACAGAGACGAAACAGC [UAACAG]
[1]
  FACS-Seq fitted mean (log10): 0.325 ± 0.2
[2]
  normalized RNA/DNA level without ligand (log10): 1.829 ± 0.015
[3]
  FACS-Seq fitted mean (log10): 0.463 ± 0.16
[4]
  normalized RNA/DNA level with ligand (log10): 1.952 ± 0.017

## GCUGUCACCGGUGCUUGGUACGUUAUAUUCAGCCGGUCUGAUGAGUCUUAACAAAGACGAAACAGC [UAACAA]
[1]
  FACS-Seq fitted mean (log10): 0.381 ± 0.053
[2]
  normalized RNA/DNA level without ligand (log10): 1.95 ± 0.02
[3]
  FACS-Seq fitted mean (log10): 0.18 ± 0.0065
[4]
  normalized RNA/DNA level with ligand (log10): 2 ± 0.037

## GCUGUCACCGGUGCUUGGUACGUUAUAUUCAGCCGGUCUGAUGAGUCUAAAAGCAGACGAAACAGC [AAAAGC]
[1]
  FACS-Seq fitted mean (log10): 0.477 ± 0.09
[2]
  normalized RNA/DNA level without ligand (log10): 1.999 ± 0.011
[3]
  FACS-Seq fitted mean (log10): 0.358 ± 0.1
[4]
  normalized RNA/DNA level with ligand (log10): 2.03 ± 0.042

## GCUGUCACCGGUGCUUGGUACGUUAUAUUCAGCCGGUCUGAUGAGUCUAAAAGGAGACGAAACAGC [AAAAGG]
[1]
  FACS-Seq fitted mean (log10): 0.512 ± 0.12
[2]
  normalized RNA/DNA level without ligand (log10): 1.875 ± 0.005
[3]
  FACS-Seq fitted mean (log10): 0.459 ± 0.17
[4]
  normalized RNA/DNA level with ligand (log10): 1.98 ± 0.038

## GCUGUCACCGGUGCUUGGUACGUUAUAUUCAGCCGGUCUGAUGAGUCUGAAAGGAGACGAAACAGC [GAAAGG]
[1]
  FACS-Seq fitted mean (log10): 0.138 ± 0.034
[2]
  normalized RNA/DNA level without ligand (log10): 1.902 ± 0.0036
[3]
  FACS-Seq fitted mean (log10): 0.0807 ± 0.19
[4]
  normalized RNA/DNA level with ligand (log10): 2 ± 0.021

## GCUGUCACCGGUGCUUGGUACGUUAUAUUCAGCCGGUCUGAUGAGUCUUAAAGGAGACGAAACAGC [UAAAGG]
[1]
  FACS-Seq fitted mean (log10): 0.0807 ± 0.018
[2]
  normalized RNA/DNA level without ligand (log10): 1.631 ± 0.0062
[3]
  FACS-Seq fitted mean (log10): 0.507 ± 0.13
[4]
  normalized RNA/DNA level with ligand (log10): 1.94 ± 0.035

## GCUGUCACCGGUGCUUGGUACGUUAUAUUCAGCCGGUCUGAUGAGUCUUAAAGCAGACGAAACAGC [UAAAGC]
[1]
  FACS-Seq fitted mean (log10): 0.217 ± 0.12
[2]
  normalized RNA/DNA level without ligand (log10): 1.973 ± 0.017
[3]
  FACS-Seq fitted mean (log10): 0.319 ± 0.15
[4]
  normalized RNA/DNA level with ligand (log10): 2 ± 0.06

## GCUGUCACCGGUGCUUGGUACGUUAUAUUCAGCCGGUCUGAUGAGUCUUAAAGAAGACGAAACAGC [UAAAGA]
[1]
  FACS-Seq fitted mean (log10): 0.265 ± 0.1
[2]
  normalized RNA/DNA level without ligand (log10): 1.88 ± 0.019
[3]
  FACS-Seq fitted mean (log10): 0.312 ± 0.088
[4]
  normalized RNA/DNA level with ligand (log10): 1.99 ± 0.029

## GCUGUCACCGGUGCUUGGUACGUUAUAUUCAGCCGGUCUGAUGAGUCUUAAAGUAGACGAAACAGC [UAAAGU]
[1]
  FACS-Seq fitted mean (log10): 0.553 ± 0.0074
[2]
  normalized RNA/DNA level without ligand (log10): 1.886 ± 0.0062
[3]
  FACS-Seq fitted mean (log10): 0.894 ± 0.26
[4]
  normalized RNA/DNA level with ligand (log10): 1.99 ± 0.045

## GCUGUCACCGGUGCUUGGUACGUUAUAUUCAGCCGGUCUGAUGAGUCUGAAAUAAGACGAAACAGC [GAAAUA]
[1]
  FACS-Seq fitted mean (log10): 0.624 ± 0.015
[2]
  normalized RNA/DNA level without ligand (log10): 2.008 ± 0.007
[3]
  FACS-Seq fitted mean (log10): 0.26 ± 0.23
[4]
  normalized RNA/DNA level with ligand (log10): 2.02 ± 0.038

## GCUGUCACCGGUGCUUGGUACGUUAUAUUCAGCCGGUCUGAUGAGUCUGAAAUGAGACGAAACAGC [GAAAUG]
[1]
  FACS-Seq fitted mean (log10): 0.4312 ± 0.0042
[2]
  normalized RNA/DNA level without ligand (log10): 1.954 ± 0.012
[3]
  FACS-Seq fitted mean (log10): 0.551 ± 0.067
[4]
  normalized RNA/DNA level with ligand (log10): 2.03 ± 0.043

## GCUGUCACCGGUGCUUGGUACGUUAUAUUCAGCCGGUCUGAUGAGUCUAAAAUAAGACGAAACAGC [AAAAUA]
[1]
  FACS-Seq fitted mean (log10): 0.397 ± 0.014
[2]
  normalized RNA/DNA level without ligand (log10): 1.9645 ± 0.00067
[3]
  FACS-Seq fitted mean (log10): 0.47 ± 0.066
[4]
  normalized RNA/DNA level with ligand (log10): 2 ± 0.025

## GCUGUCACCGGUGCUUGGUACGUUAUAUUCAGCCGGUCUGAUGAGUCUAAAAUUAGACGAAACAGC [AAAAUU]
[1]
  FACS-Seq fitted mean (log10): 0.432 ± 0.056
[2]
  normalized RNA/DNA level without ligand (log10): 2.0158 ± 0.0011
[3]
  FACS-Seq fitted mean (log10): 0.29 ± 0.039
[4]
  normalized RNA/DNA level with ligand (log10): 2.02 ± 0.031

## GCUGUCACCGGUGCUUGGUACGUUAUAUUCAGCCGGUCUGAUGAGUCUGAACAGAGACGAAACAGC [GAACAG]
[1]
  FACS-Seq fitted mean (log10): 0.808 ± 0.1
[2]
  normalized RNA/DNA level without ligand (log10): 1.959 ± 0.0099
[3]
  FACS-Seq fitted mean (log10): 0.638 ± 0.1
[4]
  normalized RNA/DNA level with ligand (log10): 2.01 ± 0.03

## GCUGUCACCGGUGCUUGGUACGUUAUAUUCAGCCGGUCUGAUGAGUCUGAACAAAGACGAAACAGC [GAACAA]
[1]
  FACS-Seq fitted mean (log10): 0.694 ± 0.2
[2]
  normalized RNA/DNA level without ligand (log10): 1.976 ± 0.013
[3]
  FACS-Seq fitted mean (log10): 0.571 ± 0.25
[4]
  normalized RNA/DNA level with ligand (log10): 2 ± 0.033

## GCUGUCACCGGUGCUUGGUACGUUAUAUUCAGCCGGUCUGAUGAGUCUAAACACAGACGAAACAGC [AAACAC]
[1]
  FACS-Seq fitted mean (log10): 0.222 ± 0.096
[2]
  normalized RNA/DNA level without ligand (log10): 2.001 ± 0.01
[3]
  FACS-Seq fitted mean (log10): 0.0733 ± 0.14
[4]
  normalized RNA/DNA level with ligand (log10): 2.01 ± 0.026

## GCUGUCACCGGUGCUUGGUACGUUAUAUUCAGCCGGUCUGAUGAGUCUAAACAAAGACGAAACAGC [AAACAA]
[1]
  FACS-Seq fitted mean (log10): 0.376 ± 0.066
[2]
  normalized RNA/DNA level without ligand (log10): 1.971 ± 0.0088
[3]
  FACS-Seq fitted mean (log10): 0.436 ± 0.009
[4]
  normalized RNA/DNA level with ligand (log10): 1.99 ± 0.022

## GCUGUCACCGGUGCUUGGUACGUUAUAUUCAGCCGGUCUGAUGAGUCUAAACAUAGACGAAACAGC [AAACAU]
[1]
  FACS-Seq fitted mean (log10): 0.298 ± 0.095
[2]
  normalized RNA/DNA level without ligand (log10): 1.971 ± 0.0055
[3]
  FACS-Seq fitted mean (log10): 0.199 ± 0.17
[4]
  normalized RNA/DNA level with ligand (log10): 2.01 ± 0.045

## GCUGUCACCGGUGCUUGGUACGUUAUAUUCAGCCGGUCUGAUGAGUCUAAACAGAGACGAAACAGC [AAACAG]
[1]
  FACS-Seq fitted mean (log10): 0.346 ± 0.021
[2]
  normalized RNA/DNA level without ligand (log10): 1.925 ± 0.0068
[3]
  FACS-Seq fitted mean (log10): 0.296 ± 0.11
[4]
  normalized RNA/DNA level with ligand (log10): 1.99 ± 0.046

## GCUGUCACCGGUGCUUGGUACGUUAUAUUCAGCCGGUCUGAUGAGUCUUAAAUGAGACGAAACAGC [UAAAUG]
[1]
  FACS-Seq fitted mean (log10): 0.33 ± 0.034
[2]
  normalized RNA/DNA level without ligand (log10): 1.7477 ± 0.001
[3]
  FACS-Seq fitted mean (log10): 0.685 ± 0.3
[4]
  normalized RNA/DNA level with ligand (log10): 1.95 ± 0.039
